Measured values from article PMC10782944 (Science immunology, 2023).

How the values were obtained:
Assay in all cases: SPR
[1] = target: CNGB3 peptide/HLA-A*24:02 (Homo sapiens, HLA-A*24:02, strain)
PHOX2B/HLA-A*24:02/β2m = PHOX2B/HLA-A*24:02/β2m (Homo sapiens, HLA-A*24:02, strain)
ATG2A/HLA-A*24:02 = ATG2A/HLA-A*24:02 (Homo sapiens, HLA-A*24:02, strain)
GLB1 peptide/HLA-A*24:02 = GLB1 peptide/HLA-A*24:02 (Homo sapiens, HLA-A*24:02, strain)

B1: peptide-centric CAR (PC-CAR) 10LH, single-chain fragment variable (scFv) (scFv, V domains shown)
V domain 1: EVQLLESGGGLVQPGGSLRLSCAASGFTFDSYAMSWVRQAPGKGLEWVSAISGYGGSTYYADSVKGRFTISRDNSKNTLYLQMNSLRAEDTAVYYCAKYTYFLDAFDIWGQGTMVTVSS
V domain 2: QSVLTQPPSVSVSPGQTASITCSGDSLGNKYACWYQQKPGQSPVLVIYQDSKRPSGIPERFSGSNSGNTATLTISGTQAMDEADYYCQAWDSSRGYTVVFGTGTKVTVS
binding result [1]: binds
Kd (PHOX2B/HLA-A*24:02/β2m): 11 nM
Kd (ATG2A/HLA-A*24:02): 1000 nM
binding result (GLB1 peptide/HLA-A*24:02): binds
